Target: recombinantly expressed FphB protein (rFphB), wild type (Staphylococcus aureus) (UniProt Q2FV90)

FphB-OX-5 (peptide)
IC50 of inhibition of rFphB (100 nM), cleavage of the 4-MUB substrate (20 μM): 1800 nM

Reference: publication PMC11581011
